{"source": "paper doi:10.1101/2025.08.04.668392", "about": "(bioRxiv, 2025)", "molecules": {"B1": {"name": "GST-NlB 1016-1030 (domain or fragment, X. laevis, UniProt O42480 1016-1030, looked up)", "chain": "GYKFNAPVVPSTFNF"}, "B2": {"name": "GST-tagged Imp7 (1002-1038) fragment F1019Y (domain or fragment, X. laevis, UniProt O42480 1002-1038, looked up)", "chain": "RRAAHESKMIEKHGGYKYNAPVVPSTFNFGNPAPGMN"}, "B3": {"name": "GST-tagged Imp7 (1002-1038) fragment F1028Y (domain or fragment, X. laevis, UniProt O42480 1002-1038, looked up)", "chain": "B2 chain with Y18F, F27Y"}, "B4": {"name": "GST-tagged Imp7 (1002-1038) fragment N1032G (domain or fragment, X. laevis, UniProt O42480 1002-1038, looked up)", "chain": "B2 chain with Y18F, N31G"}, "B5": {"name": "GST-tagged Imp7 (1002-1038) fragment N1029S (domain or fragment, X. laevis, UniProt O42480 1002-1038, looked up)", "chain": "B2 chain with Y18F, N28S"}, "B6": {"name": "GST-tagged Imp7 (1002-1038) fragment F1030Y (domain or fragment, X. laevis, UniProt O42480 1002-1038, looked up)", "chain": "B2 chain with Y18F, F29Y"}, "B7": {"name": "Histone H1.11L from chicken (natural protein, chicken (Gallus gallus), UniProt P08287 1-225, looked up)", "chain": "MSETAPAPAAEAAPAAAPAPAKAAAKKPKKAAGGAKARKPAGPSVTELITKAVSASKERKGLSLAALKKALAAGGYDVEKNNSRIKLGLKSLVSKGTLVQTKGTGASGSFRLSKKPGEVKEKAPKKKASAAKPKKPAAKKPAAAAKKPKKAVAVKKSPKKAKKPAASATKKSAKSPKKVTKAVKPKKAVAAKSPAKAKAVKPKAAKPKAAKPKAAKAKKAAAKKK"}}, "key": {"[1]": {"target": "His-tagged Importin β (Impβ), H. sapiens, from pQE60-Impβ (human) (UniProt Q14974)", "sequence (Q14974 whole entry)": "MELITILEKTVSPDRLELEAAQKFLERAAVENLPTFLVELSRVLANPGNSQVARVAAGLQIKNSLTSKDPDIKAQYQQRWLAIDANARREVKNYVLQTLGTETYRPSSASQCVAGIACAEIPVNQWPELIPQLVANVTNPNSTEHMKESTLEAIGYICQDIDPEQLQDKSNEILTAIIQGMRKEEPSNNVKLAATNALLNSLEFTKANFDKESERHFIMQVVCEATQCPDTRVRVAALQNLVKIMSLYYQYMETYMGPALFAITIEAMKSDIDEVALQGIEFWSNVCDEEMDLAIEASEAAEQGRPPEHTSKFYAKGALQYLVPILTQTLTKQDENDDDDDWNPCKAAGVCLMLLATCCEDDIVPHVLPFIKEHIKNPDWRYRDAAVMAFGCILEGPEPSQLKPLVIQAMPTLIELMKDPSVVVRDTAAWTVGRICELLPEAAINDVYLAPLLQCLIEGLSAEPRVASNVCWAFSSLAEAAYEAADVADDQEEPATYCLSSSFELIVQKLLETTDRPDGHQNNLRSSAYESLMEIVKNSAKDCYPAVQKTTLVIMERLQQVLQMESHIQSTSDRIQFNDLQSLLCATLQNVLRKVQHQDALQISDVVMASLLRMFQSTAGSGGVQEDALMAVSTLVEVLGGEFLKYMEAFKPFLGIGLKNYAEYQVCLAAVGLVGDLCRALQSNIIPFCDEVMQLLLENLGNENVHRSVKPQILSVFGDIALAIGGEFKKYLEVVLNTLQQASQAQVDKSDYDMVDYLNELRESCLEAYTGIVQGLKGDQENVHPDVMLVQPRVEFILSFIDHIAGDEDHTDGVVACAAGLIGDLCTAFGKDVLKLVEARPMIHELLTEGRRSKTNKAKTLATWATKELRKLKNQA", "test": "ITC"}, "[2]": {"target": "His-tagged Importin β (Impβ), H. sapiens, from pQE60-Impβ (human, UniProt Q14974 1-876)", "sequence (Q14974 whole entry)": "as above", "test": "ITC"}, "[3]": {"target": "Importin β (hsImpβ) of the purified trimeric complex Impβ:Imp7:H1.11L-chick (human, UniProt Q14974 1-876)", "sequence (Q14974 whole entry, one chain of several)": "as the sequence (Q14974 whole entry) above", "test": "cross-linking"}}, "note": "Changes are numbered by the printed parent chain. Names and notes keep the numbering of the source."}
{"molecule": "GST-tagged Imp7 (1002-1038) fragment P1024G (domain or fragment)", "values": [{"measurement": "fold reduction of binding against the wild-type NlB region (1002-1038)", "setting": "[1]", "result": 7, "unit": "fold"}]}
{"molecule": "GST-tagged Imp7 (1002-1038) fragment V1023T (domain or fragment)", "values": [{"measurement": "fold reduction of affinity against the wild-type NlB region (1002-1038)", "setting": "[1]", "result": 4, "unit": "fold"}]}
{"molecule": "GST-tagged Imp7 (1002-1038) fragment V1023E (domain or fragment)", "values": [{"measurement": "fold reduction of affinity against the wild-type NlB region (1002-1038)", "setting": "[1]", "result": 15, "unit": "fold"}]}
{"molecule": "B1", "values": [{"measurement": "fold reduction of affinity against the NlB region (1002-1038)", "setting": "[2]", "result": "~4", "unit": "fold"}]}
{"molecule": "B2", "values": [{"measurement": "fold reduction of affinity against the wild-type NlB region (1002-1038)", "setting": "[2]", "result": "≥ 5", "unit": "fold"}]}
{"molecule": "B3", "values": [{"measurement": "fold reduction of affinity against the wild-type NlB region (1002-1038)", "setting": "[2]", "result": "≥ 5", "unit": "fold"}]}
{"molecule": "B4", "values": [{"measurement": "fold increase of affinity against the wild-type NlB region (1002-1038)", "setting": "[2]", "result": "~2", "unit": "fold"}]}
{"molecule": "B5", "values": [{"measurement": "fold increase of affinity against the wild-type NlB region (1002-1038)", "setting": "[2]", "result": "~2", "unit": "fold"}]}
{"molecule": "B6", "values": [{"measurement": "fold reduction of affinity against the wild-type NlB region (1002-1038)", "setting": "[2]", "result": "≥ 5", "unit": "fold"}]}
{"molecule": "B7", "values": [{"measurement": "binding result", "setting": "[3]", "result": "binds"}]}
